# From patent EP4725964A1 (Jiangsu Mabwell Health Pharmaceutical R&D Co., Ltd., dated 2026)
# T1: Nectin-4 in human tissue sections (human, UniProt Q96NY8 32-510)
# T1 construct: Endogenous Nectin-4 in formalin-fixed, paraffin-embedded human tissue sections (cell membrane and/or cytoplasm), as stained by immunohistochemistry; also called target protein Nectin-4; Nectin-4 in normal human tissues and tumor tissues
# T1 sequence: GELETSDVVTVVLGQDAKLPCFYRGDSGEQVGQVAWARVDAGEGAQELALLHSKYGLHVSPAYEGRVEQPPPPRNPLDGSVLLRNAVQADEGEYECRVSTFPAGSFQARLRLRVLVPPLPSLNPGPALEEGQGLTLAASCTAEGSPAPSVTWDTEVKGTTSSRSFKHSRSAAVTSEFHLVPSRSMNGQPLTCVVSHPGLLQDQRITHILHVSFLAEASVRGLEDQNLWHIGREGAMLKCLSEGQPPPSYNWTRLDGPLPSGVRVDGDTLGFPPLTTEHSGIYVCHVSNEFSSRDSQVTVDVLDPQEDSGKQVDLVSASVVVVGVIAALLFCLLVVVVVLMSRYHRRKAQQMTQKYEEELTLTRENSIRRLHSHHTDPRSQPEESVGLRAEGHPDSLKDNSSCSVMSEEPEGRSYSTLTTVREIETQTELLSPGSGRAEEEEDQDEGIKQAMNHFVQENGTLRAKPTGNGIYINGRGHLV
# T2: human Nectin-4 expressed by PC-3-Nectin-4 cells (human, UniProt Q96NY8 32-510)
# T2 construct: Full-length human Nectin-4 gene (NCBI Gene ID 81607, 1533 bp) knocked into PC-3 cells; On intact cells in flow cytometry; in denatured cell lysate in Western blotting; also called Nectin-4-expressing cells; Nectin-4-positive cells
# T2 sequence: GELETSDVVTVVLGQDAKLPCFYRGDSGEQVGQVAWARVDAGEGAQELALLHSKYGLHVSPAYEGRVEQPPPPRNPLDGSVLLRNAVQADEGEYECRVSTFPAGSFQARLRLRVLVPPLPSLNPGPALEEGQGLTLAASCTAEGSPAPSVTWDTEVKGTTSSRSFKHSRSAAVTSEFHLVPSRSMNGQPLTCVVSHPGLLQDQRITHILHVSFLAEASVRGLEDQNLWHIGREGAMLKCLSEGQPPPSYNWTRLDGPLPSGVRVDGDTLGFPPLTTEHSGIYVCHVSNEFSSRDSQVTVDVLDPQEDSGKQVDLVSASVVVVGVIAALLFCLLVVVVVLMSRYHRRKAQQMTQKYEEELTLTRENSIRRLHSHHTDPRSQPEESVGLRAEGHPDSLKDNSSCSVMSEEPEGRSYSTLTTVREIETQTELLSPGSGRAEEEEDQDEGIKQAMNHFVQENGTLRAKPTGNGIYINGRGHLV
# B1: Antibody R012 (antibody, V domains shown)
# VH: SKSVEESGGRLVTPGTPLTLTCTVSGFSLSTYAMSWVRQAPGKGLEYIGIISGRGTTYYASWLKGRFTISKTSTTVDLKITSPTTEDTATYFCARDAGISDVYTGYFNLWGQGTLVTVSS
# VL: QPVLAQLPSASAALGASAKLTCTLSSAHRTYTIAWYQQQQGEAPRYLMMLKSDGSYTKGTGVPDRFSGSSSGADRYLIISSVQAADEADYYCGADDSGGYVFGGGTQLTVTG
# notes: Rabbit monoclonal antibody from a phage library; heavy chain constant region is rabbit IgG; also called Nectin-4 rabbit monoclonal antibody R012; rabbit antibody R012
# B2: Antibody R036 (antibody, V domains shown)
# VH: SQSVEESGGRLVTPGTPLTLTCTVSGFSLSSYAMSWVRQAPGKGLEYIGIIGGRGTTYYAIWAKGRFTISKTSTTVDLKITSPTTEDTATYFCARDAGTTYVGTTYVATGYFNLWGQGTLVTVSS
# VL: QPVLTQPPSASAALGASAKLTCTLSSAHKTYTIAWYQQQQGEAPRYLMILKSDGSYTRGTGVPDRFSGSSSGADRYLIISSVQADDEADYYCGADDSGGYVFGGGTQLTVTG
# notes: Rabbit monoclonal antibody from a phage library; heavy chain constant region is rabbit IgG; also called Nectin-4 rabbit monoclonal antibody R036; rabbit antibody R036
# B3: Antibody MM11 (antibody, mouse IgG1, kappa, V domains shown)
# VH: DVQLQESGPGLVKPSQSLSLTCSVTGYSITSNFYWNWIRQFPGNRLEWMGYISYDGSNNYNPSLKNRISISRDTSKNQFFLKLNSVTTEDTATYYCVRADYWGQGTLVTVSA
# VL: DTVMTQTPLSLPVSLGDQASISCRSSQSLESSDGHAYLNWYLQKPGQSPQLLIYRVSNRFSGVLHRFSGSGSGTDFTLKISRVEAEDLGVYFCLQFTHVPFTFGSGTKLEIKR
# notes: Mouse monoclonal antibody from a hybridoma; heavy chain constant region is mouse IgG1; also called Nectin-4 mouse monoclonal antibody MM11; mouse antibody MM11
# What was measured:
# [1] = target: recombinant human Nectin-4 protein (human) (UniProt Q96NY8); assay: ELISA, antigen coated at 5 ug/ml, antibody 1000 ng/ml
# [2] = target: recombinant human Nectin-4 protein (human) (UniProt Q96NY8); assay: ELISA, antigen coated at 5 ug/ml, antibody 0 ng/ml (blank control)
# [3] = target: recombinant human Nectin-4 protein (human) (UniProt Q96NY8); assay: ELISA, antigen coated at 5 ug/ml, antibody 10 ng/ml
# [4] = target: T1, Nectin-4 in human tissue sections; assay: IHC, normal human pancreas, antibody 1 ug/ml
# [5] = target: recombinant human Nectin-4 protein (human) (UniProt Q96NY8); assay: ELISA, antigen coated at 5 ug/ml, antibody 10000 ng/ml
# [6] = target: recombinant human Nectin-4 protein (human) (UniProt Q96NY8); assay: ELISA, antigen coated at 5 ug/ml, antibody 100 ng/ml
# [7] = target: T2, human Nectin-4 expressed by …; assay: flow cytometry on PC-3-Nectin-4 cells, antibody 5 ug/ml
# [8] = target: T1, Nectin-4 in human tissue sections; assay: IHC, normal human skin, antibody 1 ug/ml
# [9] = target: T1, Nectin-4 in human tissue sections; assay: IHC, normal human salivary gland, 3 samples, antibody 1 ug/ml
Binder,OD detection value (OD450 nm-650 nm) [1],OD detection value (OD450 nm-650 nm) [2],OD detection value (OD450 nm-650 nm) [3],binding result [4],OD detection value (OD450 nm-650 nm) [5],OD detection value (OD450 nm-650 nm) [6],binding result [7],binding result [8],binding result [9]
B1,1.56,0.008,0.748,binds,1.51,1.44,binds,,
B2,1.64,0.007,0.73,,1.63,1.48,binds,binds,
B3,2.05,0.008,0.58,,1.97,1.64,binds,,binds
